± gives the standard error. Fewer inactive variants are shown than the library holds.
B1: glmS ribozyme (parent)
chain: AUAAAAGCGCCAGAACUACAGAAAUGUAGUUGACGAGGAGGAGGUUUAUCGAAUUUUCGGCGGAUGCCUCCAAA

Key:
Conditions in all cases: with glucosamine-6-phosphate
[1] = variants of: B1; test: self-cleavage kobs at 160 uM GlcN6P; higher = faster cleavage; RNA array
Procedure, shortened: (§1)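 Glucosamine-6-phosphate, from 40 μM to 10 mM in HEPES/KCl/Mg(OAc)2 buffer, was flowed over sequenced MiSeq chips carrying barcoded ribozyme variants transcribed in situ by E. coli RNA polymerase. A hybridised Cy3 probe tracked the variants at 37 °C as tiles were imaged over ~14 h. kobs, kcat and KM were obtained by fitting normalised per-tile medians to exponential decays and then applying weighted Michaelis–Menten fits across concentrations.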

[2] = variants of: B1; test: self-cleavage kobs at 640 uM GlcN6P; higher = faster cleavage; RNA array
Procedure, shortened: as §1

[3] = variants of: B1; test: self-cleavage kobs at 10000 uM GlcN6P; higher = faster cleavage; RNA array
Procedure, shortened: as §1

[4] = variants of: B1; test: self-cleavage kobs at 2500 uM GlcN6P; higher = faster cleavage; RNA array
Procedure, shortened: as §1

Variant	self-cleavage kobs at 160 uM GlcN6P [1] [s⁻¹]	self-cleavage kobs at 640 uM GlcN6P [2] [s⁻¹]	self-cleavage kobs at 10000 uM GlcN6P [3] [s⁻¹]	self-cleavage kobs at 2500 uM GlcN6P [4] [s⁻¹]
C10A U54G C71G	9.72e-05 ± 3.2e-05	0.000112 ± 5.5e-05		
U46G U49A C50A A64G	< 1e-05	< 1e-05		
C34U C61G	< 1e-05	< 1e-05	< 1e-05	
G29A C50A A53C	< 1e-05			
G35A U55C	< 1e-05	< 1e-05	< 1e-05	< 1e-05
U47C G51U C68U	< 1e-05			< 1e-05
G29U G32C A36G	< 1e-05	< 1e-05		
U30C A36G C67A	< 1e-05			< 1e-05
A14C C50G C70G	0.000127 ± 3.4e-05	0.000437 ± 0.00014	7.94e-05 ± 1.8e-05	0.000126 ± 3.1e-05
A14U A36C A64U	< 1e-05	< 1e-05	< 1e-05	
G32U G38U U54G	< 1e-05			
C8U G13U G43A C61G	< 1e-05			
G32U G59C	< 1e-05	< 1e-05		< 1e-05
C10A A14U A52U C70G	0.00038 ± 0.00011	0.000294 ± 7.4e-05		8.93e-05 ± 3.8e-05
G44U U49C	< 1e-05	< 1e-05	< 1e-05	
C8G G13A U54A G62A	< 1e-05	< 1e-05		
G35U G41U G43A	< 1e-05	< 1e-05		< 1e-05
C11U C61A C67G	7.27e-05 ± 2.3e-05	8.2e-05 ± 3.6e-05		7.14e-05 ± 3.3e-05
C34U G37A C50A A52G C70G	0.000507 ± 0.00015	0.000453 ± 0.00013		0.000268 ± 9.2e-05
G32A G44C G66A C68A	< 1e-05	< 1e-05		< 1e-05
A15U A33G U47G U54G C67U C71A	0.000235 ± 8.9e-05	0.000303 ± 8.2e-05		
U49G G51U	< 1e-05	< 1e-05	< 1e-05	< 1e-05
G9U U31A U65G	< 1e-05	< 1e-05		< 1e-05

Variant	self-cleavage kobs at 160 uM GlcN6P [1] [s⁻¹]	self-cleavage kobs at 640 uM GlcN6P [2] [s⁻¹]	self-cleavage kobs at 10000 uM GlcN6P [3] [s⁻¹]	self-cleavage kobs at 2500 uM GlcN6P [4] [s⁻¹]
C8G A12U G63U	< 1e-05	< 1e-05		< 1e-05
G13U G41C A42U U65C	< 1e-05	< 1e-05		< 1e-05
A39G G43U C58A	< 1e-05	< 1e-05		< 1e-05
U56A U69G	5.23e-05 ± 1e-05	5.7e-05 ± 2e-05	4.58e-05 ± 8.9e-06	0.000127 ± 4.2e-05
G37A A42C U46C	< 1e-05			< 1e-05
A6U C34A G63C	< 1e-05	< 1e-05		< 1e-05
C34A U49C	< 1e-05	< 1e-05	< 1e-05	< 1e-05
U56C C67G	< 1e-05	< 1e-05	< 1e-05	
A15C U30A	0.000667 ± 0.00019	0.00307 ± 0.00075	0.0299 ± 0.015	0.0188 ± 0.0047
C16G G35C A39G G60U C61U C68U C71A	< 1e-05	< 1e-05		< 1e-05
G13C A52G C70G	0.000297 ± 0.00012	0.000164 ± 5.2e-05		7.21e-05 ± 3e-05
A33U G63C	< 1e-05	< 1e-05	< 1e-05	< 1e-05
C50U A52G C70A	5.11e-05 ± 2.3e-05	0.000125 ± 3.7e-05		6.9e-05 ± 2.3e-05
G29A U31C C34U	< 1e-05	< 1e-05		< 1e-05
C11G G63U	< 1e-05		< 1e-05	< 1e-05
U45G U47G	0.000328 ± 9.1e-05	0.00314 ± 0.00086		0.00347 ± 0.00055
G9C A64C	< 1e-05	< 1e-05	< 1e-05	
A12U G32A G37A U45A	< 1e-05			
G9U G13C G40A G44U G63U	< 1e-05	< 1e-05		< 1e-05
A6C A15U	< 1e-05			
C8A G9U C19A G29C C34A A48C	< 1e-05			< 1e-05
A14G A39C G40U U46A A53C	< 1e-05			< 1e-05
A6C G29C C58G C71A	6.35e-05 ± 1.9e-05	0.000108 ± 4.5e-05		
